From US20170059578A1 (ROCHE SEQUENCING SOLUTIONS, published 2017)

Biological target: T1, streptavidin (UniProt P22629 37-163, limits assumed)
T1 construct: Applied in solution to the peptide array and detected by fluorescence; also called streptavidin receptor; receptor
Assay: peptide array, fluorescence signal of bound streptavidin

T1 sequence (P22629 37-163 limits assumed): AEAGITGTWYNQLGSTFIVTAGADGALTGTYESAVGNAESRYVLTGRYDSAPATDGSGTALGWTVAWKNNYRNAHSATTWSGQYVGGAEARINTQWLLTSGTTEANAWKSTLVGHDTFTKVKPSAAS

B1: … (SEQ ID NO:1) with deletion of the His at the 10th position from the N-terminus (peptide)
peptide: GFEDYLGEYG
notes: Deletion made by design ([-]) or imitated by synthesis conditions [1]; (solvent alone) and [2]; (no reagent); also called His deletion peptide; synthesis conditions [1] and [2]
binding result: no binding

B2: … (SEQ ID NO:2) with deletion of the Met at the 6th position from the N-terminus (peptide)
peptide: GWTHPFEQKG
notes: Deletion made by design ([-]) or imitated by synthesis conditions [1]; (solvent alone) and [2]; (no reagent); also called deletion control peptide; synthesis conditions [1] and [2]
binding result: no binding
